Test: soluble on expression in E. coli; label from the status in PepcDB or PDB records

Sequence | soluble on expression in E. coli
MAHHHHHHMATVYTSVPGKDFAKGVTLDEANRIVRVDAGLPLLSALQVGMIVRSIGGVPVGDGRCEQARHHSNRSQVLVVLGAPPKDEFDLCSDDDDAANLKPPSTLPPLPPEFNNSVAQNSSGVVYEATVKCGEGGCVIIMCEGANPALAITLAAEKAKAEVMYIDTVARMKTRQTLENAGEVLKKSLEKGLWIYVEQATKSITLLRQISDCIMEVRAAGKMHAQSRVLLMCEPHPHFPEALMRGSVTLRSRLQNNNMAEVDIREDLSESAHRKQAIHGDDVASSETAAKPEVTKTRKKVRISNQVNIVHLEKSTFMEMSASAQPPLESGTSHDGISRVAKYSFGSNENLISLSYVRDHRFAIGTNSGYVVLIDRNGLPLIQFRPHKACIWDVSFSSQFDFSTACEDGTSVIYKYSLANQELTTVSVASFQNDVFAVTYANPNDVNSGVLSGGLSATVCVLHSDRQNSSFIACRTSIQAMCATQMNQVIVGGGTGACTLIDTNHCVVTDITHAHNKKVPAVGTHGNVAVTGGFDCVLRLWDVRNGFHLTSQRQLNEVITAVAMNERYISACSGSSLYVWDPRKMDRTLAVKANAWKDLTRGLVLDGSTIVTASVDGVARIWEVS | not soluble
RIVEIPVCYGGEFGPDLEEVAKINQLSPEEVIDIHTNGEYVVYMLGFAPGFPFLGGMSKRIAAPRKSSPRPSIPAGSVGIAGLQTGVYPISTPGGWQLIGKTPLALFRPQENPPTLLRAGDIVKFVRISEKDYHAYKEESN | soluble
ERSIGFDGVMYFYSDTEKIRDAAFEAALQDQLEWKIEGLKPYVIPADKTLSDRICREDILRGVTIAANGFYGPQGRRLRLPLKDEDLNRKIQAFDFNGSRITNYEMESSSLAGLAALMGHEAITVCCIIAGRKSEKMNTSYQGSIEGLIDLVLERI | not soluble
MDKVIFYSNIRNLIFKKCSIQFLIINDTVAHKEQVAMREMNQLVNTEDSAWPIIQNWLKDATNHTELLPVNKDLAETALYQLQVTTKSPMGALVYGSGGLLIDNGLEHHHHHH | not soluble
GSHMGGIEVLGVKTGVDSFTEVECFLNPQMGNPDEHQKGLSKSLAAEKQFTDDSPDKEQLPCYSVARIPLPNINEDLTCGNILMWEAVTVKTEVIGVTAMLNLHSGTQKTHENGAGKPIQGSNFHFFAVGGEPLELQGVLANYRTKYPAQTVTPKNATVDSQQMNTDHKAVLDKDNAYPVECWVPDPSKNENTRYFGTYTGGENVPPVLHITNTATTVLLDEQGVGPLCKADSLYVSAVDICGLFTNTSGTQQWKGLPRYFKITLRKRSVKN | soluble
MSDNDTIVAQATPPGRGGVGILRISGFKAREVAETVLGKLPKPRYADYLPFKDADGSVLDQGIALWFPGPNSFTGEDVLELQGHGGPVILDLLLKRILTIPGLRIARPGEFSERAFLNDKLDLAQAEAIADLIDASSEQAARSALNSLQGAFSARVNHLVEALTHLRIYVEAAIDFPDEEIDFLSDGKIEAQLNDVIADLDAVRAEARQGSLLREGMKVVIAGRPNAGKSSLLNALAGREAAIVTDIAGTTRDVLREHIHIDGMPLHIIDTAGLREASDEVERIGIERAWQEIEQADRVLFMVDGTTTDAVDPAEIWPEFIARLPAKLPITVVRNKADITGETLGMSEVNGHALIRLSARTGEGVDVLRNHLKQSMGFDTNMEGGFLARRRHLQALEQAAEHLQQGKAQLLGAWAGELLAEELRLAQQNLSEITGEFTSDDLLGRIFSSFCIGK | soluble
MGHHHHHHGGHMSLENLNSYIKGHFADSILVKEQILKDENLITLIKNASLEVIKAYKNGNKTLLAGNGGSAADAQHIAGEFVSRFYFDRPGIASIALTTDTSILTAIGNDYGYENLFARQVQAQGVKGDVFIGISTSGNSKNILKALEFCKQKEIISIGLSGASGGAMNELCDYCIKVPSTCTPRIQEAHILIGHIICAIVEEELFGKGFSCKQEGGS | soluble
MKKYLILVGSPPACGKTYVSGELAKRLNNPVYLDKDTVIPLSKMVFKAANQPYNRDSDFFKEYVRDAEYIVTFDLAFESLNYNNCVIVNAPFSKEFRDKGYMNNLKNKLKKYNAELIPVWVSCDIDVCHKRMIKRNSDRDTWKLNNWDEYVKGQNYTTPDLEGLFVVDNSSNEDFEAGLKKLLEKVLLEHHHHHH | soluble
MVNTIGFDREKYIEMQSQHIRERREALGGKLYLEMGGKLFDDMHASRVLPGFTPDNKIAMLDRIKDEVEILVCINAKDLERHKIRADLGISYEEDVLRLVDVFRDRGFLVEHVVLTQLENDNRLALAFIERLQRLGIKVSRHRVIPGYPTDMDRIVSDEGFGLNEYAETTRDLVVVTAPGPGSGKLATCLSQVYHEHKRGVAAGYAKFETFPIWNLPLEHPVNLAYEAATVDLNDANVIDHFHLAAYGEQTVNYNRDVEAFPLLKTLLERLMGESPYQSPTDMGVNMAGNCISDDAACRHASEQEIIRRYFKALVEEARTGKDSTQSDRAAVVMAKAGIKASQRVVVEPARQVEERTSLPGCAIELVDGSIITGATSDLLGCSSSMLLNALKHLAGIDDAIHLLSPESIEPIQTLKTVHLGSSNPRLHTDEVLIALSVSAATDSNAQKALDQLKNLRGCDVHTTTILGSVDEGIFRNLGVLVTSDPKFQKNKLYQKR | not soluble
MSLDREGLNTHLKSGATTVCRAWEVRRTDGVTLGFTDHDRDLSFDGMTFRAGTGLSARSLMQSTGLAVDNSEALGALSSDAVREADIESGRYDGAEVRAWLVNWADTTERALQFRGSLGEIRRAGGAFEAELRGLTEALNQPLGRVFQKPCSAVLGDAACKFDLSTAGYAVEIDVETLRDGQLFAWASLDGFAPGWFTGGRLTVLGGAGAGLWAPIRSDSLNARREITLWQPIRADIQPGDLVRLSAGCDKRQSTCRLKFDNLVNYQGFPDIPGEDWMVAVPKRTGQNTGGSRREGHHHHHH | soluble
EIRDTKKDLKESEMRLSLALDASNMAAWHIDMDTRHIAYSDTLAVIFGYPKDTTLVWSDLVAQIYPEDMHLYQTARQQMETTGLYEYEIRIVWPDNSIKWIKTIGKMLLDSDGSQRRMIGITRDIT | not soluble
MEVDPGSDDVEADRETRAQKLKLKRNVKFRAQMRRFDEYCGVTNLTVDDLNWPLISGIPLQRQRLTGATYYDDSLLDQNPWDEFSIDRFLEITSIQLITAGAGYERNDEITRFVFQRTMKTIVTYCNFMYDLARRNGKVQITRFELQDLIHRDEFRFYMYFRQFLPNPDPNCTAFSNHYTSLLHTLYFNIPGMPQFWNNSQMYNYAATRGQRLVQNIAAFYPPEYFWNEDESKYHTTFVVPRGTEFSKFYARRFHEALGMPPLENEIITVLDWLAKLCILEIVYHTTIWCDITGFGGLPRIEHYRLAMENVEDIIFDLAIDDFSISRLQLQISPFEISRYSPLDVSGYYETIKRKKDIEEYQNRFYEVHYSDDVRIMNVYATDCSRKR | not soluble
MSLKNLTIKENQPAIYITNLGKYTEGEHMGQWLNVPATKEQFNVVLKNIGVDGVQYEEYFLTDWENIGGISQFSNIERVNNMAKIQIAINEKLYNFFGADQEITYFNDDKYKVMEILNDYAKEQADELTTDEIIENIESMRIFAQDQYNSCIVNFANYLIDELEFINFKAIEKIDQKVVNYFDFEKFGHDKLIELNANSDVIIGTYEVGKLNDTIIIVTLFEGHHHHHH | soluble
MAHHHHHHMGLVDAYDRAATTEIANESLKDVRPDIVHQCLLALFDSDLAYQHRLRVYMSLFVRQGKVIEVSPALRPPRTYARFRGLMSALLRDGRICSTDGQVLMRLMPGSVAPIIPHGAEVVGLTNSLSSPVVTATQLAQQAVAAPVDDSLQGGIKHVTAFYCISCTDDCNLDGIDYITKSVCLSAYPMTAHVQCARVCEGHTRVEPASSVSGSAAGMGVGGGQAKTDRCSAPEPPKRRGEVFPANQAEDNKL | not soluble
ADYVLAIDQGTTSSRAIVFDHSGEIYSTGQLEHDQIFPRAGWVEHNPEQIWNNVREVVGLALTRGNLTHEDIAAVGITNQRETAVVWDKTTGKPVYNAIVWQDTRTQKIVDELGGDEGAEKYKSIVGLPLATYFSGPKIKWILDNVEGAREKAEKGDLLFGNTDTWVLWNMTGGTEGGVHVTDVTNASRTMLMDLDTLSWREDIAADMGIPLSMLPDIRSSSEVYGHGRPRGLVPGVPIAGILGDQQAATFGQACFEVGQAKNTYGTGNFLLLNTGTEKVMSKNGLLTTVCYKIGDAPAVYALEGSIAVTGSLVQWLRDNLGMFEDAPDVEWLAGKVQDNGGAYFVPAFSGLFAPYWRPDARGALVGLTRYVNRNHIARAALEATAFQSREVVDAMNADSGVDLTELRVDGGMVANELLMQFQADQLGVDVVRPKVAETTALGAAYAAGIAVGFWKGEQDVIDNWAEDKRWSPSMESGERERLYRNWKKAVTKTMEWVDEDVEQ | soluble
